Assay results from patent US20090197330A1 (BIOMEDICS, published 2009).
Where a chain is given by its changes, count along the chain named.

T1: human CD20 antigen (human, UniProt P11836 1-297)
T1 construct: whole, on cells; also called CD20/CHO cells; CD20 on Raji cells
T1 sequence (looked up): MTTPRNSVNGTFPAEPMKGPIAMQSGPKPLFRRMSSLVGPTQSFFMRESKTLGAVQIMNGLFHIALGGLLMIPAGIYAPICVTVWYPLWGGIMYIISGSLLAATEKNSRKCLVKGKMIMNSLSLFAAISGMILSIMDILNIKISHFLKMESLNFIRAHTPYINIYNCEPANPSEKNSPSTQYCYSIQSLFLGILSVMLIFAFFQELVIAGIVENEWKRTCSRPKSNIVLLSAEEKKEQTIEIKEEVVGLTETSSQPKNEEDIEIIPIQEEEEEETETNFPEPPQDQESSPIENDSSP

B1: chimeric anti-CD20 monoclonal antibody c1K1422 (antibody, V domains shown)
VH: QVQLQQPGAELVKPGASVKMSCRASGYTFTNYNMHWIKQTPGQGLEWIGAIYPGSGDTSYNRKFKGKATLTADTSSSTAYMQFSSLTSADSAVYYCARFTYYYGGTYGAMDYWGQGTSVTVSL
VL: QIVLTQSPPIMSASLGEEITLTCSASSRVSYMLWYQQKSGTSPKLLIYSTSNLASGVPSRFSGSGSGTFYSLTISSVEAEDAADYYCHQWTSNPCTFGGGTKLEIK
notes: Murine variable regions fused to human immunoglobulin H chain and L chain (kappa) constant regions of vector pNOW-Ab
B2: chimeric anti-CD20 monoclonal antibody c1K1791 (antibody, V domains shown)
VH: QIQLVQSGPELKKPGETVKISCKASGYTFTNFGVNWVKQAPGKGLKWMGWINTYTGEPSYADDFKGRFAFSLEASANTAYLQINNLKNDDMSTYFCTRRTNYYGTSYYYAMDYWGQGTSVTVSS
VL: STVMTQTPKFLLVSAGDRVTITCKASQSVSNDVAWYQQKPGQSPKVLIYFASNRYTGVPDRFTGSGYGTDFTFTINTVQAEDLAVYFCQQDYSSPLTFGAGTKLELK
notes: as for B1
B3: chimeric anti-CD20 monoclonal antibody c1K0924 (antibody, V domains shown)
VH: QVQLQQPGAELVKPGASVKMSCKASGYTFTSYNIHWVKQTPGQGLEWIGAIYPGNGDTSYNQKFKGKATLTSDKSSSTAYMQLSSLTSEDSAVYYCARMSTMITGFDYWGQGTTLTVSS
VL: QIVLSQSPAILSASPGEKVTMTCRASSSVSYMHWYQQRPGSSPKPWIYATSNLASGVPARFSGSGSGTSYYFTISRVEAEDAATYYCQQWNSNPPTHGGGTKLEIK
notes: as for B1
B4: chimeric anti-CD20 monoclonal antibody c1K1736 (antibody, V domains shown)
VH: QVQLQQPGAELVKPGASVKMSCKASGYTFTTYNLHWVKQTPGQGLEWIGGIYPGNGDTSYNQKFKVKATLTADKSSNTAYMQLSSLTSEDSAVYYCARWIYYGNYEGTLDYWGQGTSVTVSS
VL: B3 VL with A13S, H33L, R38K, K44E, S64G, Y71S, F72L, N91T, S92F, H97F
notes: as for B1
B5: Rituximab (c2B8) (antibody, V domains shown)
VH: QVQLQQPGAELVKPGASVKMSCKASGYTFTSYNMHWVKQTPGRGLEWIGAIYPGNGDTSYNQKFKGKATLTADKSSSTAYMQLSSLTSEDSAVYYCARSTYYGGDWYFNVWGAGTTVTVSA
VL: B3 VL with M32I, Y35F, R38K, A59V, Y71S, F72L, N91T, H97F
B6: chimeric anti-CD20 monoclonal antibody c1K1402 (antibody, V domains shown)
VH: QVQLQQPGAELVKPGASVKMSCKASGFTFTSYNMHWVKQTPGQGLEWIGGIYPGNGDTSYNQKFKGKATLTADKSSSTAYMQLSSLTSEDSAVYYCARFYYYGSMGAMDYWGQGTSVTVSS
VL: B3 VL with R38K, Y71S, F72L, S75T, N91T, S92F, H97F, G99A, I105L
notes: as for B1
B7: chimeric anti-CD20 monoclonal antibody c1K1712 (antibody, V domains shown)
VH: QVQLQQPGAELVKPGASVKMSCKASGFTFTSYNLHWVKQTPGQGLEWIGAIYPGSGDTSYNQQFKGKATLTADKSSNTAYMQLNSLTSEDSAVYCCARSAMISTGNWYFDYWGQGTTLTVSS
VL: B3 VL with H33D, R38K, Y71S, F72L, A82T, N91T, S92F, H97F, G99S
notes: as for B1
B8: chimeric anti-CD20 monoclonal antibody c1K1782 (antibody, V domains shown)
VH: QVQLQQSGAELAKPGASVKMSCKASGYTFTSYWMHWVKQRPGQGLEWIGYITPSTGYTDYNKKFKDKATLTADRSSSTAYMHLSSLTSEDSAVYYCARSGPYFDVWGAGTTVTVSS
VL: DILLTQSPAILFVSPGERVSLSCRASQNIGTSIHWYQQRTNGSPRLLIKYASESFSGIPSRFSGSGSGTDFTLSINSVESEDIADYYCQQSNSWPFTFGSGTKLEIK
notes: as for B1
B9: chimeric anti-CD20 monoclonal antibody c1K1228 (antibody, V domains shown)
VH: QVQLQQPGAELVKPGASVKVSCKASGFTFTSYNLHWVKQTPGQGLVWIGAIYPGNGDTSYNQKFRGKATLTADISSSTAYMQLSSLTSEDSAVYYCARYYYGYDAMDYWGQGTSVTVSS
VL: EIILTQSPTTMAASPGEKITITCSASSSISSYYLRWYQQKPGFSPKVLIYRTSNLASGVPARFSGSGSGTSYSLTIGTMEAEDVATYYCQQGNTVPLTFGSGTKLEIK
notes: as for B1

Each binder was assayed against T1, human CD20 antigen (assay: CD20/CHO cell-ELISA, antibody at 1 ng/ml).
From the text: (§1) The prepared 8 kinds of chimeric anti-CD20 monoclonal antibodies were examined for reactivity to the human CD20 antigen by the CD20/CHO cell-ELISA. Rituximab (c2B8) was used as a positive control. The values measured in the cell-ELISA (A492) reflect intensity of the binding property.

Binder	A492 [A492]
B1	0.077
B2	0.108
B3	0.094
B4	0.122
B5	0.088
B6	0.116
B7	0.145
B8	0.074
B9	0.12

Each binder was assayed against T1, human CD20 antigen (assay: CD20/CHO cell-ELISA, antibody at 3 ng/ml).
From the text: as §1

Binder	A492 [A492]
B1	0.151
B2	0.276
B3	0.186
B4	0.32
B5	0.226
B6	0.349
B7	0.359
B8	0.169
B9	0.289

The binders below were run against T1, human CD20 antigen (assay: CD20/CHO cell-ELISA, antibody at 10 ng/ml).
From the text: as §1

Binder	A492 [A492]
B1	0.357
B2	0.745
B3	0.391
B4	0.748
B5	0.536
B6	0.737
B7	0.793
B8	0.505
B9	0.701

These binders were tested against T1, human CD20 antigen (assay: CD20/CHO cell-ELISA, antibody at 32 ng/ml).
From the text: as §1

Binder	A492 [A492]
B1	0.912
B2	1.46
B3	0.724
B4	1.55
B5	1.14
B6	1.62
B7	1.68
B8	1.02
B9	1.58

The binders below were run against T1, human CD20 antigen (assay: CD20/CHO cell-ELISA, antibody at 100 ng/ml).
From the text: as §1

Binder	A492 [A492]
B1	1.92
B2	2.23
B3	1.42
B4	2.43
B5	2.15
B6	2.45
B7	2.29
B8	2.1
B9	2.23
